{
  "source": "patent US7592307B2",
  "about": "“Releasable linkage and compositions containing same” (Alza Corporation, priority 1999, dated 2009)",
  "key": {"[1]": {"assay": "Blood lysozyme concentration after intravenous or subcutaneous administration", "assay_type": "in vivo", "settings": "rats", "protocol": "The mPEG12000-MeDTB-lysozyme conjugates were administered in vivo to rats to characterize the in vivo behavior of the conjugate and its ability to cleave under physiologic conditions. In a first study, nine rats were divided into three test groups for administration of PEG-lysozyme, PEG-MeDTB-lysozyme, or free lysozyme. The test compound was administered intravenously or subcutaneously and blood samples were taken at defined times for analysis of blood lysozyme concentration."}, "[2]": {"assay": "Thiolytic cleavage of PEG-lysozyme conjugates (SDS-PAGE, RP-HPLC)", "assay_type": "physicochemical", "settings": "for cleavage under reducing SDS-PAGE conditions: 2% β-mercaptoethanol, 10 minutes at 70° C.", "protocol": "In a study performed in support of the invention, lysozyme was used as a model polypeptide. As described in Example 8, lysozyme was incubated with mPEG-MeDTB-nitrophenylcarbonate in 0.1 M borate, at pH 9, at a 2:1 ratio of nitrophenylcarbonate to amino group of lysozyme. After reactions times of 15 minutes and 3 hours, separate samples were characterized by SDS-PAGE. A comparative conjugate was prepared by reacting lysozyme under the same conditions for 60 minutes with mPEG-nitrophenyl carbonate, which will form a stable mPEG-lysozyme conjugate.\nLanes 6-9 of the gel correspond to the samples in Lanes 1-4, but under reducing SDS-PAGE conditions, after treatment with 2% β-mercaptoethanol for 10 minutes at 70° C. […] In contrast, the stable mPEG-lysozyme conjugate was not affected upon incubation with a reducing agent, as evidenced by the agreement in the profile in Lane 9 and Lane 4.\nA similar study was done using cysteine as a reducing agent on a purified mPEG5000-MeDTB-lysozyme conjugate. The results of the SDS-PAGE profile are shown in FIG. 12B, where an mPEG-MeDTB-lysozyme conjugate (Lane 1) treated with 1 mM cysteine (Lane 2), 5 mM cysteine (Lane 3), and 50 mM cysteine (Lane 4) are shown. Also shown are an mPEG-lysozyme conjugate (no cleavable linkage) before (Lane 5) and after treatment (Lane 6) with 50 mM cysteine. Lysozyme before (Lane 7) and after (Lane 8) with 50 mM cysteine are also shown. Lane 9 corresponds to protein markers.\nExample 8 describes the methodology of the reverse-phase HPLC analysis. The trace at the bottom of FIG. 13A corresponds to neat lysozyme.\nReverse-phase HPLC analysis. RP-HPLC separation of PEG-lysozyme conjugates was achieved on a Vydac™ Protein C4 (4.6×150 mm) column eluted at 1 ml/min with aqueous acetonitrile gradient as follows. Each chromatography run started with a mobile phase A (30% acetonitrile, 5% 0.1 M sodium acetate pH 5, and 65% H2O), and over a period of 40 min ended with a mobile phase B (50% acetonitrile, 50% 0.1 M sodium acetate pH 5). UV detector set at 280 nm was used to monitor the chromatography. SDS-PAGE. Polyacrylamide gel electrophoresis under denaturing conditions was performed for conjugates characterization. Pre-cast NuPAGE® Bis-Tris gels (4-15%), NuPAGE®MES running buffer, molecular weight protein standards (Mark 12™), and Colloidal Coomassie® G-250 staining kit, were all obtained from Invitrogen, Carlsbad, Calif. […] Aliquots were taken out from the reaction vial at various time points and analyzed by RP-HPLC as described above (see FIG. 13A). […] Purified PEG-DTB-lysozyme containing only one PEG moiety per lysozyme was treated with 1 mM cysteine while the reaction was monitored by LC-MS. […]"}, "bacterial cell wall": {"system": "bacterial cell wall", "assay": "Bacterial cell wall lysis turbidometric assay of enzyme activity", "assay_type": "biochemical", "settings": "after treatment with 1 mM cysteine"}, "[3]": {"assay": "Cleavage of mPEG-MeDTB-lysozyme in plasma (SDS-PAGE stained for PEG)", "assay_type": "in vitro ADME", "settings": "plasma for 18 hours", "protocol": "The samples were stained with iodine, for PEG visualization. Lane 1 corresponds to mPEG5000-MeDTB-lysozyme, Lane 2 corresponds to mPEG5000-MeDTB-lysozyme in cysteine buffer, Lane 3 corresponds to mPEG5000-MeDTB-lysozyme in plasma for 18 hours, Lane 4 corresponds to mPEG5000-MeDTB-lysozyme with 1,4-dithio-DL-threitol (DTT) added, Lane 5 is a plasma sample control, and Lane 6 is PEG molecular weight markers. […] Free PEG is liberated after treatment with low molecular weight thiol, such as DTT."}, "bovine serum albumin": {"biological_target": "bovine serum albumin (Bos taurus, UniProt P02769)", "sequence (P02769 25-607)": "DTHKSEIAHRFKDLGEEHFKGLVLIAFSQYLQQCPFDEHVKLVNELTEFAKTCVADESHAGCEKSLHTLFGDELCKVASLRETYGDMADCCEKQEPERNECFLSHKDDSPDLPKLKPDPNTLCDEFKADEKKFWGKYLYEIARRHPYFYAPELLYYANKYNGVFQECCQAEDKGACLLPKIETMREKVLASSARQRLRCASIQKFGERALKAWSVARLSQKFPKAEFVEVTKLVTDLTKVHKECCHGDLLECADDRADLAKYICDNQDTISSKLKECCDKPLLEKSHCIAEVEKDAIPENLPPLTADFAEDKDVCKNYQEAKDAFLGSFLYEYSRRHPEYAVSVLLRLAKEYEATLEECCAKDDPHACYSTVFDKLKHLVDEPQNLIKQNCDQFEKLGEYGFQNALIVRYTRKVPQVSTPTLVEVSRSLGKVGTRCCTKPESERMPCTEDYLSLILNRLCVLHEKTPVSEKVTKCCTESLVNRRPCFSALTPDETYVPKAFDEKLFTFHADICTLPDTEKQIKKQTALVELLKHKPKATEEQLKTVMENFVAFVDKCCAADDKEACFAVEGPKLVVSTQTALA", "assay": "Cleavage of mPEG-DTB-lysozyme by albumin (SDS-PAGE stained for PEG)", "assay_type": "physicochemical", "settings": "treated with bovine serum albumin", "description": "In another set of studies, it was shown that the thiol group of albumin was acting as the cleaving agent. Albumin is an abundant protein-thiol in plasma (Kratz, F. et al. J. Med. Chem., 45:5523 (2002)). The SDS-PAGE gel from this study is shown in FIG. 16B, where Lanes 1-12 were as follows:\nThe gel was stained for visibility of PEG. […] Lane 10 corresponds to mPEG-DTB-lysozyme treated with albumin and no spot on the gel corresponding to the mPEG-DTB-lysozyme conjugate is visible (compare to Lane 11), nor is a spot corresponding to released PEG visible (compare to Lane 4)."}},
  "data": [
    {"substance": "PEG12000-MeDTB-lysozyme", "values": [
      {"measurement": "T1/2α", "setting": "[1]; intravenous", "result": 3.71, "unit": "h"},
      {"measurement": "T1/2β", "setting": "[1]; intravenous", "result": 37.2, "unit": "h"},
      {"measurement": "bioavailability (AUC)", "setting": "[1]; subcutaneous", "result": "best bioavailability"}
    ]},
    {"substance": "PEG12000-lysozyme [reference compound]", "values": [
      {"measurement": "T1/2α", "setting": "[1]; intravenous", "result": 2.17, "unit": "h"},
      {"measurement": "T1/2β", "setting": "[1]; intravenous", "result": 32.9, "unit": "h"}
    ]},
    {"substance": "lysozyme: model polypeptide", "values": [
      {"measurement": "T1/2α", "setting": "[1]; intravenous", "result": 0.25, "unit": "h"},
      {"measurement": "T1/2β", "setting": "[1]; intravenous", "result": 24.1, "unit": "h"},
      {"measurement": "blood concentration decrease", "setting": "[1]; intravenous, within one hour after administration", "result": "more than 10 fold"}
    ]},
    {"substance": "mPEG5000-MeDTB-lysozyme", "values": [
      {"measurement": "cleavage and release of lysozyme (RP-HPLC)", "setting": "[2]; 1 mM cysteine, 30 minute time point", "result": "near completion"},
      {"measurement": "cleavage under reducing SDS-PAGE conditions", "setting": "[2]", "result": "decomposed to regenerate native lysozyme"},
      {"measurement": "cleavage by cysteine (SDS-PAGE stained for PEG)", "setting": "[2]; treated with cysteine", "result": "cleaved in the presence of cysteine"},
      {"measurement": "cell-lysing (enzymatic) activity after thiolysis", "setting": "bacterial cell wall", "result": "nearly all"},
      {"measurement": "cell-lysing (enzymatic) activity after thiolysis", "setting": "bacterial cell wall; listed as mPEG-DTB-Lysozyme", "result": "Recovery of enzymatic activity"},
      {"measurement": "cleavage in plasma", "setting": "[3]", "result": "cleaved in plasma"},
      {"measurement": "cleavage by albumin", "setting": "bovine serum albumin", "result": "cleaved by the albumin"}
    ]},
    {"substance": "mPEG-lysozyme [reference compound]", "values": [
      {"measurement": "cleavage under reducing SDS-PAGE conditions", "setting": "[2]", "result": "not affected"},
      {"measurement": "cell-lysing (enzymatic) activity after thiolysis", "setting": "bacterial cell wall", "result": "remained inactive"}
    ]}
  ]
}
